Measurements as given in patent publication US20260078182A1.

Biological target: CCR4 (human) (UniProt P51679)
Experiment: cell-based or functional assay

Sequence of UniProt P51679 (P51679 whole entry): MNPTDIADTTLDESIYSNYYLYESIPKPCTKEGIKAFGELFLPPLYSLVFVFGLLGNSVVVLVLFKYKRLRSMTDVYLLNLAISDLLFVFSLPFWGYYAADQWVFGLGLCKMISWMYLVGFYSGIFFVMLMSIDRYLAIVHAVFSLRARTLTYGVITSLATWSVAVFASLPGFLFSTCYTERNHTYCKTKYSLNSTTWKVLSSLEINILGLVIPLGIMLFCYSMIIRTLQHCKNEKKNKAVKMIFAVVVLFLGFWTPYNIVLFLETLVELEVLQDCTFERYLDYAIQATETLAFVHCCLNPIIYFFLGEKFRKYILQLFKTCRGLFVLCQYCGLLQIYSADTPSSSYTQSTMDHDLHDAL

mogamulizumab (antibody)
EC50 (pM), cytotoxicity of the negative control antibody against MT-2 cells expressing CCR4 with T-LAK effector cells (calcein release): 1140 pM | Emax (%), cytotoxicity of the negative control antibody against MT-2 cells expressing CCR4 with T-LAK effector cells (calcein release): 8.5%
